Data on 18 molecules can be found in US20090311283A1.

Assay [1] addresses HLA-B*3501 (human). The assay is described as follows: competition with 125I-labelled probe peptide for purified HLA, gel filtration. For orientation: Size exclusion chromatography separates by hydrodynamic size, large species first.
The target in assay [2] is HLA-B*5401 (human). Described as above.
Assay [3] addresses HLA-B*5301 (human). The description is as above.
For assay [4], the target named is HLA-B*0702 (human). The assay is described as above.
For assay [5], the target named is T1, HLA-DRB4*0101 (human).
T1 chain 1: not shown
T1 chain 2: not shown

The target in assay [6] is T2, HLA-DRB1*0101 (human).
T2 chain 1: not shown
T2 chain 2: not shown

The target in assay [7] is HLA-A*2401 (human). The assay can be described thus: competition with 125I-labelled probe peptide ([..]) for purified HLA, gel filtration; relative to standard peptide 979.02.
The target in assay [8] is HLA-A*0301 (Human). The assay can be described thus: competition with 125I-labelled probe peptide for purified HLA, gel filtration; relative to standard peptide. To be noted: remark: other sources report otherwise.
Assay [9] concerns the target HLA-B*5401 (human). The assay is described as follows: competition vs 125I probe peptide, purified HLA, gel filtration. To be noted: remark: other sources report otherwise.
Assay [10] concerns the target HLA-B*0702 (human). Described as above. Particulars: remark: other sources report otherwise.
Assay [11] addresses HLA-A*03 (human). The assay is described as follows: competitive inhibition of 125I-labelled probe peptide binding to purified HLA, gel filtration. To be noted: remark: other sources report otherwise.
Assay [12] addresses HLA-B*3501 (human). The assay is described as follows: competition vs 125I probe peptide, purified HLA, gel filtration. To be noted: remark: other sources report otherwise.
Assay [13] deals with HLA-A*6801 (human). The assay can be described thus: inhibition of 125I-labelled probe peptide binding to purified HLA, gel filtration. Particulars: remark: other sources report otherwise.
The target of assay [14] is HLA-A*0101 (Human). To be noted: remark: other sources report otherwise.
The target in assay [15] is T3, HLA-DR4w15 (DRB1*0405) (human).
T3 chain 1: not shown
T3 chain 2: not shown
The assay is described as follows: 125I-probe competition on purified DR4w15; ratio vs standard 717.01 (IC50 38 nM).

For assay [16], the target named is HLA-A*6802 (Human). To be noted: remark: other sources report otherwise.
The target of assay [17] is HLA-DR9 (DRB1*0901) (human). To be noted: remark: other sources report otherwise.
Assay [18] has as its target HLA-DR7 (DRB1*0701) (human).
The target in assay [19] is HLA-DR6w19 (DRB1*1302) (human). Particulars: remark: other sources report otherwise.
The target in assay [20] is HLA-DR8w2 (DRB1*0802) (human). Particulars: remark: other sources report otherwise.
Assay [21] concerns the target HLA-DR2w2β2 (DRB5*0101) (human).
For assay [22], the target named is T4, HLA-DR2w2β1 (DRB1*1501) (human).
T4 chain 1: not shown
T4 chain 2: not shown
The assay can be described thus: 125I-probe competition on purified DR2w2β1; ratio vs standard 507.02 (IC50 […]). To be noted: remark: other sources report otherwise.

The target in assay [23] is T5, HLA-DRB1*0405 (human).
T5 chain 1: not shown
T5 chain 2: not shown
The assay is described as follows: inhibition of 125I-labelled probe peptide binding to purified HLA-DR; gel filtration. Particulars: remark: other sources report otherwise.

For assay [24], the target named is T6, HLA-DRB1*0901 (human).
T6 chain 1: not shown
T6 chain 2: not shown
The assay is described as above. Particulars: remark: other sources report otherwise.

In assay [25] the target is T7, HLA-DRB1*0802 (human).
T7 chain 1: not shown
T7 chain 2: not shown
Described as above. To be noted: remark: other sources report otherwise.

Assay [26] concerns the target T8, HLA-DRB5*0101 (human).
T8 chain 1: not shown
T8 chain 2: not shown
The assay is described as above. To be noted: remark: other sources report otherwise.

Assay [27] concerns the target T2, HLA-DRB1*0101 (human). Described as above. Particulars: remark: other sources report otherwise.
Assay [28] deals with T9, HLA-DRB1*1101 (human).
T9 chain 1: not shown
T9 chain 2: not shown
Described as above. To be noted: remark: other sources report otherwise.

Assay [29] deals with T10, HLA-DRB1*1501 (human).
T10 chain 1: not shown
T10 chain 2: not shown
Described as above. Particulars: remark: other sources report otherwise.

The target of assay [30] is T11, HLA-DRB1*1302 (human).
T11 chain 1: not shown
T11 chain 2: not shown
The description is as above. To be noted: remark: other sources report otherwise.

The target in assay [31] is T12, HLA-DRB1*0401 (human).
T12 chain 1: not shown
T12 chain 2: not shown
The description is as above. Particulars: remark: other sources report otherwise.

The target of assay [32] is HLA-DR5w11 (DRB1*1101) (human).
For assay [33], the target named is T13, HLA-DR4w4 (DRB1*0401) (human).
T13 chain 1: not shown
T13 chain 2: not shown
The assay can be described thus: 125I-probe competition on purified DR4w4; ratio vs standard 515.01 (IC50 45 nM).

The target in assay [34] is T14, HLA-DR1 (DRB1*0101) (human).
T14 chain 1: not shown
T14 chain 2: not shown
The assay is described as follows: 125I-probe competition on purified DR1; ratio vs standard 515.01 (IC50 5.0 nM).

Assay [35] deals with T15, HLA-DRw53 (DRB4*0101) (human).
T15 chain 1: not shown
T15 chain 2: not shown
The assay is described as follows: 125I-probe competition on purified DRw53; ratio vs standard 717.01 (IC50 58 nM).

For assay [36], the target named is HLA-DR9 (DRB1*0901) (human). The assay can be described thus: competition with 125I probe peptide for purified HLA-DR, gel filtration.
Assay [37] deals with T16, HLA-DR6w19 (DRB1*1302) (human).
T16 chain 1: not shown
T16 chain 2: not shown
Described as above.

The target in assay [38] is T17, HLA-DR8w2 (DRB1*0802) (human).
T17 chain 1: not shown
T17 chain 2: not shown
The description is as above.

The target of assay [39] is T14, HLA-DR1 (DRB1*0101) (human). Described as above.
For assay [40], the target named is T18, HLA-DR7 (DRB1*0701) (human).
T18 chain 1: not shown
T18 chain 2: not shown
Described as above.

The target of assay [41] is T13, HLA-DR4w4 (DRB1*0401) (human). The assay is described as above.
Assay [42] has as its target HLA-DR5w12 (DRB1*1201) (human). The assay is described as above.
In assay [43] the target is T19, HLA-DR5w11 (DRB1*1101) (human).
T19 chain 1: not shown
T19 chain 2: not shown
Described as above.

Assay [44] has as its target T15, HLA-DRw53 (DRB4*0101) (human). The description is as above.
Assay [45] deals with T14, HLA-DR1 (DRB1*0101) (human). The assay is described as follows: inhibition of 125I probe peptide binding to purified HLA-DR, gel filtration. To be noted: remark: other sources report otherwise.
Assay [46] has as its target T19, HLA-DR5w11 (DRB1*1101) (human). Described as above. To be noted: remark: other sources report otherwise.
Assay [47] addresses HLA-A*0301 (human). The assay is described as follows: competition with 125I-labelled probe peptide for purified HLA-A*0301, gel filtration; relative binding. To be noted: scale: ratio.
For assay [48], the target named is T20, HLA-DRB1*0701 (human).
T20 chain 1: not shown
T20 chain 2: not shown

The target of assay [49] is T12, HLA-DRB1*0401 (human).

Like-named read-outs stand apart in the source and are kept apart here.

On to IPWTHKVGNF (modifications not checked) [HBV POL 50 …], for which the binding affinity ratio (IC50 standard peptide / IC50 test peptide) in assay [1] is 0.0001; in assay [2], 0.0002; in assay [3], 0.0001; in [4], 0.0013.
For the molecule AEDLNLGNLNVSIPW (modifications not checked) [… (HBV POL 38, 15-mer)], the figures for the binding affinity ratio (IC50 of standard peptide / IC50 of test peptide) in assay [5] and in assay [6] were 0.017 and 0.0001, respectively.
With KFAVPNLQSL (modifications not checked) [HBV POL 395 …], the binding affinity ratio (IC50 of the standard peptide / IC50 of the test peptide) in assay [7] worked out at 0.002.
As to ILRGTSFVY (modifications not checked) [HBV POL 760 …], the binding affinity ratio (IC50 of standard peptide / IC50 of test peptide) in assay [8] was determined as 0.044.
As a reminder, the IC50 is the concentration needed to halve the response being measured. For the molecule VPSALNPA (modifications not checked) [Peptide 19.0016 (HBV POL 769, VPSALNPA)], the IC50 amounted to 10 nM in assay [9] and 3000 nM in [10].
ILRGTSFVY (modifications not checked) [HBV POL 771 peptide 1.0205 (…)]: the 50% inhibitory concentration (IC50) in assay [11] was 250 nM.
On to FPDHQLDPA (modifications not checked) [Peptide 16.0006 (HBV ENV 25, …)], for which the IC50 was 8000 nM in assay [12] and 12 nM in assay [9].
VSIPWTHK (modifications not checked) [HBV POL 50 peptide 26.0024 (VSIPWTHK)] returned a half-inhibitory concentration (IC50) in assay [13] of 20000 nM.
ILRGTSFVY (modifications not checked) [HBV POL 760 peptide …]: the binding affinity ratio (IC50 of the standard peptide / IC50 of the test peptide) in assay [14] was 0.0017.
CQVFADATPTGWGLA (modifications not checked): in [15], the binding affinity ratio (standard IC50 / test IC50) was 0.28.
On to ILSTLPETTV (modifications not checked) [peptide 1069.14], for which, in [16], the IC50 came to 5970 nM.
In the case of VGNFTGLYSSTVPVF (modifications not checked), the binding affinity ratio (standard IC50 / test IC50) in assay [17] was 0.31; in assay [18] (remark: other sources report otherwise), 0.58; in [19], 0.058; in assay [20] it was 0.0044; in assay [21] it was 0.0016; in assay [22], 0.01.
GFFLLTRILTIPQSL (modifications not checked) [… (HBV ENV 181, 15-mer)]: the binding affinity ratio (IC50 of standard peptide / IC50 of test peptide) stood at 0.45 in [23]; 0.55 in assay [24]; 1.6 in [25]; 0.011 in assay [26]; 0.43 in assay [27]; 2.3 in assay [28]. In addition, the figures for the binding affinity ratio (IC50 of standard peptide / IC50 of test peptide) in assay [29], in assay [30] and in assay [31] were 0.015, 0.078 and 3.1, respectively.
For the molecule WPKFAVPNLQSLTNL (modifications not checked), the binding affinity ratio (standard IC50 / test IC50) in [32] was 0.0002; in assay [18] it was 0.0008; in [33], 0.0023; in assay [34], 0.0007; in assay [35] it was 0.018.
Turning to FVQWFVGLSPTVWLS (modifications not checked) [HBV ENV 342 peptide …], the relative binding (IC50 of standard peptide / IC50 of test peptide) in assay [36] is 0.041; in assay [37], 0.019; in assay [38], 0.018; in [39], 0.47; in [40] it was 0.069; in assay [41], 0.013. In addition, the relative binding (IC50 of standard peptide / IC50 of test peptide) in assay [42] came to 0.0021; in [43], 0.0072; in assay [44] it was 0.0044.
CSVVRRAFPHCLAFS (modifications not checked) [HBV POL peptide …]: the figures for the binding affinity ratio (relative to standard peptide) in assay [45] and in assay [46] were 0.1 and 0.0008, respectively.
On to FLLVLLDY (modifications not checked) [HBV ENV 256 FLLVLLDY], for which the binding affinity ratio (relative to the standard peptide) in [47] worked out at 0.005.
Regarding DLNLGNLNVSIPWTH (modifications not checked) [… (HBV POL 40, 15-mer)], the binding affinity ratio (IC50 of standard peptide / IC50 of test peptide) in assay [48] came to 0.001; in [6], 0.0038; in assay [49] it was 0.024.
